Source: paper doi:10.1101/2024.12.23.629660

Target: Arabidopsis thaliana Fatty Acid Thioesterase A (FatA) (Arabidopsis thaliana) (UniProt Q42561)
Assay: crystal structure

stoichiometry N: 2
Substance: Arabidopsis thaliana Fatty Acid Thioesterase A (FatA) (from UniProt Q42561 75-362) (enzyme)
